For data set [1] the following is noted: over 1 month (Kih et al.); cited from earlier work.
Data set [2] deals with HT29 tumor. Put plainly: TUNEL analysis of HT29 tumor tissue. The format is in vivo, mouse. As to conditions: HT29 tumor tissue at the end of the study.
Excerpt: In the evaluation of the anti-tumor effect of the present invention, BALB/c nude male mice (6-7 weeks old) were used as an animal model. Particularly, HT29 cells (5×10^6) and HepG2 cells (5×10^6) were subcutaneously inoculated into the left dorsal flank of BALB/c nude mice, respectively. After a volume of tumors reached ˜80-100 mm^3, mice were randomly divided into the 14 following five treatment groups (6 mice/group); DOX-TTPNs, DOX-FTNs, free DOX, empty TTPNs, and buffer. Mice were intravenously injected five times, once every 2 days, and volume of tumors was determined as 1/2(Length×Width^2). Apoptotic cell death in tumor tissues was analyzed using TUNEL staining (In situ Cell Death Detection kit; Roche), and cells were stained with DAPI (4′,6-diamidino-2-phenylindole), as previously described (Kih et al., Biomaterials 180: 67-77, 2018). Apoptotic cells were visualized under a Nikon Eclipse Ti microscope (Nikon) and quantified as the number of TUNEL-positive cells per total number of cells using ImageJ software. After 21 days from injecting tumor cells, tumor tissues were excised from the experimental mice, and cryo-sections (3.5 μm) were fixed with 10% neutral buffered formalin and paraffin-embedded tissue blocks.
The next data set concerns HEK293T cells. Briefly: Cell viability, CCK-8 assay, HEK293T normal cells. The data set is classed as cell-based. As to conditions: HEK293T normal cells (FIG. 18). On the procedure: After culturing for 24 hours, cell viability was measured using a cell counting kit (CCK)-8 assay (Dojindo Molecular Technologies, Gaithersburg, Md.). The plate was then read with an absorbance microplate reader (Spectramax 340, Molecular Devices Corporation) at a wavelength of 450 nm and 50% effective by regression analysis using SigmaPlot software (Systat Software, Inc., San Jose, Calif.). The concentration value was calculated.
On the technique in general: Tetrazolium assays rely on reduction of a dye to a coloured formazan, in cell work by metabolically active cells.

For data set [3], the target named is T1, DR5 (Homo sapiens, UniProt O14763).
T1 construct: purchased R&D systems 631-T2-100
T1 sequence (O14763 with tags, fused parts or gaps limits assumed): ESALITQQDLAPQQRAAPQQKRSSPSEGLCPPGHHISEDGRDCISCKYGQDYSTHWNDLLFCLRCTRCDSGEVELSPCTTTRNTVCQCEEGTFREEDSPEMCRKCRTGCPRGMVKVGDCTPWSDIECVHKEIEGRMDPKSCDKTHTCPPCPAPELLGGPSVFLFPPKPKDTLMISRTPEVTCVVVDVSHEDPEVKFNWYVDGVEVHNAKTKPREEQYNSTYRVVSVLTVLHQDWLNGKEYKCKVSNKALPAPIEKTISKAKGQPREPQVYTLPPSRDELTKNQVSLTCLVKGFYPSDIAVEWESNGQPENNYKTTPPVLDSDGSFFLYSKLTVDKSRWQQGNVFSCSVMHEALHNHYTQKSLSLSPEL
Briefly: SPR binding to immobilized DR5-Fc. As to conditions: 25° C. The method, then: Binding experiments of TTPN and mTRAIL to TRAIL receptors DR4 and DR5 were analyzed at 25° C. using a surface plasmon resonance apparatus (SR7500 DC, Reichert Inc., NY, USA). DR4 and DR5-fc chimeric proteins (R&D systems 347-DR-100, 631-T2-100) were immobilized on the surface of the Planar Protein A sensor chip (Reichert, 13206069) and the receptors were coated at a level of 300 to 500 resonance units. SPR kinetic titrations were performed by adding 250 μl of TTPN and mTRAIL with different concentrations in the range of 1.56 to 400 nM and 0.1 to 25.6 μM, respectively, increasing by four times. Each analyte was run at 50 μL/min using running and sample buffer (0.5 M Tris-HCl (pH 7.4), 150 mM NaCl, 0.005% Tween 20), and binding of the ligand to the receptor was performed and monitored in real time. For titration sensorgrams, a simple 1:1 Langmuir interaction model (A+B↔AB) was applied using the data analysis program Scrubber 2.0 (BioLogic Software, Australia, and KaleidaGraph Software, Australia) and CLAMP software.
The affinity KD was determined from the formula of KD=kd/ka. Results are based on representative sensorgrams obtained from saturation binding reactions averaged over at least three independent runs of SPR measurements (FIG. 31).
Background: Surface plasmon resonance follows binding to a sensor surface in real time, without labels.

In the next data set the test system is HepG2 tumor. Put plainly: TUNEL analysis of HepG2 tumor tissue. The format is in vivo, mouse. The conditions noted are these: 15th day after first injection. The text has this: In the evaluation of the anti-tumor effect of the present invention, BALB/c nude male mice (6-7 weeks old) were used as an animal model. Particularly, HT29 cells (5×10^6) and HepG2 cells (5×10^6) were subcutaneously inoculated into the left dorsal flank of BALB/c nude mice, respectively. After a volume of tumors reached ˜80-100 mm^3, mice were randomly divided into the 14 following five treatment groups (6 mice/group); DOX-TTPNs, DOX-FTNs, free DOX, empty TTPNs, and buffer. Mice were intravenously injected five times, once every 2 days, and volume of tumors was determined as 1/2(Length×Width^2). Apoptotic cell death in tumor tissues was analyzed using TUNEL staining (In situ Cell Death Detection kit; Roche), and cells were stained with DAPI (4′,6-diamidino-2-phenylindole), as previously described (Kih et al., Biomaterials 180: 67-77, 2018). Apoptotic cells were visualized under a Nikon Eclipse Ti microscope (Nikon) and quantified as the number of TUNEL-positive cells per total number of cells using ImageJ software. […]
In addition, to investigate whether tumor growth inhibition by TTPN is induced by apoptosis-inducing activity on tumor cells, tumor tissues from the treated mice were analyzed. On the 15th day after the first injection, mice were euthanized, and apoptosis of tumor tissues was analyzed using terminal deoxynucleotidyl transferase dUTP nick end labeling (TUNEL) staining.

For another data set, the system named is HepG2 tumors. The conditions noted are these: mouse, in vivo, iv. The method, then: The delivery efficiency of TTPN to the tumor microenvironment was investigated by performing an in vivo biodistribution study (n=4 mice/group) of Cy5.5-labeled TTPN using the eXplore Optix System (Advanced Research Technologies Inc., USA). […] Free-Cy5.5 was separated by ultrafiltration (Amicon Ultra 100 K, Millipore), and the fluorescence intensity of the Cy5.5-labeled protein was measured using a fluorescence microplate reader (Infinite M200 Pro, TECAN, Austria). […] The fluorescence intensity of all samples was adjusted to the same value based on the data obtained using a fluorescence microplate reader. To analyze the fluorescence intensity of tumors, the Analysis Workstation software (Advanced Research Technologies Inc.) was used to calculate total photons per […] per steradian (p/s/cm^2/sr) in the region of interest (ROI). At 24 hours post-injection, the mice were sacrificed, and tumors and major organs including liver, lung, spleen, kidney and heart were excised and analyzed in the same manner as described above.

The test system of the next data set is HT29 cells. Briefly: Annexin V early apoptosis flow cytometry, HT29. As to conditions: HT29, low concentrations, 24 hours. The format is cell-based, human. On the procedure:
HepG2, HT29, or MCF7 cells (1.5×10^4) were cultured in a 96-well plate for 1 day, after which DOX-TTPNs, DOX-FTNs, free DOX, empty TTPNs, or buffer was added to each well. After 24 hours, cell viability was measured using a CCK-8 assay (Dojindo Molecular Technologies) according to the manufacturer's instructions. For analysis of early apoptosis, HT29 cells in 6-18 well culture plate were treated with DOX-TTPNs, free DOX, empty TTPNs, or buffer for 24 hours. Thereafter, cells were incubated with Alexa Fluor 488-conjugated annexin V (Invitrogen) 20 for 15 minutes, then analyzed using an Accuri™ C6 flow cytometer (BD Biosciences) and FlowJo 21 v10 software.

Data set [4] has as its system HT29 tumor. Briefly: Antitumor efficacy, HT29 xenograft. The data set is classed as in vivo, mouse. The conditions noted are these: i.v. five times every 2 days, DOX-TTPNs 30 mg/kg, DOX 0.4 mg/kg, DOX-FTNs 15 mg/kg, empty TTPNs 30 mg/kg.
Description: To this end, HT29 cells were implanted in mice, and after tumor volumes reached approximately 80˜100 mm^3, mice were intravenously injected with 30 mg/kg of DOX-TTPNs (equivalent to a DOX dose of 0.4 mg/kg), 0.4 mg/kg of DOX, 15 mg/kg of DOX-FTNs (equivalent to the number of moles of ferritin in a dose of TTPNs), or 30 mg/kg of empty TTPNs (equivalent to the number of moles of TRAIL in a dose of TTPNs) five times every 2 days, respectively.
In data set [5] the test system is DR5. Put plainly: Western blot time course of DR5 levels in HT29. As to conditions: HT29, 4, 12 and 24 hours. The data set is classed as cell-based, human.

Data on one substance can be found in patent US20210054047A1, “NOVEL ANTICANCER FUSION PROTEIN AND USE THEREOF” (KOREA INSTITUTE OF SCIENCE AND TECHNOLOGY, priority 2018, published 2021).

On to “TTPN: protein nanocage presenting TRAIL as natural-like homo-trimers; TRAIL 95-281 fused by linker peptide to human ferritin heavy chain”, for which the stability result in data set [1] is “more than 90%”. Also, the TUNEL-positive tumor cells with HT29 tumor [2] stood at 0.01%. The “apoptosis” value in the data set with HEK293T cells is recorded as “low apoptosis rate”. For the same substance, in the data set with DR5 [3], the ka is 6.62 (±4.19) · 10^4 M^−1 · S^−1 and the kd is 1.49 (±1.13) · 10^−5 s^−1. Also, the TUNEL-positive tumor cells in the data set with HepG2 tumor is 84.4%. Moreover, the “fluorescence intensity of tumors” value with HepG2 tumors is “higher than that of wtFTN and mTRAIL”. In addition, in the data set on HT29 cells, the “induction of early apoptosis” value is listed as “ineffective in inducing apoptosis”. In addition, in the data set on HT29 tumor [4], the “decrease of tumor volumes” value is recorded as “no significant tumor-inhibition effect”. Further, in the data set on DR5 [5], the “DR5 expression levels over time” value is reported as “no significant change”.
